From patent US20090169552A1 (FRED HUTCHINSON CANCER RESEARCH CENTER, published 2009) come the findings set out here.

B1: recombinant ERp5 (residues 1-421 of the mature protein), bacterially produced, N-terminal hexahistidine (protein)
chain: LYSSSDDVIELTPSNFNREVIQSDSLWLVEFYAPWCGHCQRLTPEWKKAATALKDVVKVGAVDADKHHSLGGQYGVQGFPTIKIFGSNKNRPEDYQGGRTGEAIVDAALSALRQLVKDRLGGRSGGYSSGKQGRSDSSSKKDVIELTDDSFDKNVLDSEDVWMVEFYAPWCGHCKNLEPEWAAAASEVKEQTKGKVKLAAVDATVNQVLASRYGIRGFPTIKIFQKGESPVDYDGGRTRSDIVSRALDLFSDNAPPPELLEIINEDIAKRTCEEHQLCVVAVLPHILDTGAAGRNSYLEVLLKLADKYKKKMWGWLWTEAGAQSELETALGIGGFGYPAMAAINARKMKFALLKGSFSEQGINEFLRELSFGRGSTAPVGGGAFPTIVEREPWDGRDGELPVEDDIDLSDVELDDLGKDEL
B2: isolated MICA α3 domain (residues 187-274), expressed in bacteria (ligand)
chain: NVTRSEASEGNITVTCRASGFYPWNITLSWRQDGVSLSHDTQQWGDVLPDGNGTYQTWVATRICQGEEQRFTCYMEHSGNHSTHPVPS
notes: Numbering probably of the mature protein (Li et al., 1999); also called α3 membrane-proximal domain
B3: NKG2D on NKL NK cells (receptor, human, UniProt P26718 1-216, looked up)
chain: MGWIRGRRSRHSWEMSEFHNYNLDLKKSDFSTRWQKQRCPVVKSKCRENASPFFFCCFIAVAMGIRFIIMVTIWSAVFLNSLFNQEVQIPLTESYCGPCPKNWICYKNNCYQFFDESKNWYESQASCMSQNASLLKVYSKEDQDLLKLVKSYHWMGLVHIPTNGSWQWEDGSILSPNLLTIIEMQKGDCALYASSFKGYIENCSTPNTYICMQRTV
notes: whole, on cells; On cells paired with DAP10 according to the description; also called KLRK1
B4: MICA tetramer (recombinant MICA*001, residues 1-276, produced in transfected 293T cells, biotinylated and conjugated with PE-streptavidin) (ligand)
chain: EPHSLRYNLTVLSWDGSVQSGFLTEVHLDGQPFLRCDRQKCRAKPQGQWAEDVLGNKTWDRETRDLTGNGKDLRMTLAHIKDQKEGLHSLQEIRVCEIHEDNSTRSSQHFYYDGELFLSQNLETKEWTMPQSSRAQTLAMNVRNFLKEDAMKTKTHYHAMHADCLQELRRYLKSGVVLRRTVPPMVNVTRSEASEGNITVTCRASGFYPWNITLSWRQDGVSLSHDTQQWGDVLPDGNGTYQTWVATRICQGEEQRFTCYMEHSGNHSTHPVPSGK
modifications: glycosylated (secreted by 293T cells); BirA enzymatic biotinylation, conjugated with phycoerythrin (PE)-streptavidin
notes: Residues 1-276 probably count on the mature protein; also called MICA tetramers; PE-MICA tetramer

The target of data set [1] is T1, Siderocalin, expressed in bacteria, P80188.
T1 chain: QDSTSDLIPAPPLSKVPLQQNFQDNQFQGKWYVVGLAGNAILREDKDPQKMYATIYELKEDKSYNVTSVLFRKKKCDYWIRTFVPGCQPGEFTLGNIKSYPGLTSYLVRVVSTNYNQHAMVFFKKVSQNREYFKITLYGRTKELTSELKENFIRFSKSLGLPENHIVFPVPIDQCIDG

In data set [2] the target is T2, C39S mutant of ERp5 fragment 1-118 (Homo sapiens (Human), UniProt Q15084 20-137, C39S).
T2 construct: Position 39 counts on the mature protein; not shown: N-terminal hexahistidine tract
T2 sequence: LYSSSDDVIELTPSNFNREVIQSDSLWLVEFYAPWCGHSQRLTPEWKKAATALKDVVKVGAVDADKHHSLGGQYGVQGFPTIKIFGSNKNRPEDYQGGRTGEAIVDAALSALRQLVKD
Nature of the data set: purified proteins mixed, non-reducing SDS-PAGE. The text has this: ERp5 activity assays. Ectodomain-only MICA, Siderocalin, and CD94-NKG2A were expressed in bacteria and purified as described (Li et al., 2001). […] All ERp5 sequences were fused to N-terminal hexahistidine tracts and included a C-terminal stop codon to prevent expression of the adjacent hexahistidine in pET22(b). Recombinant proteins were purified by metal affinity (BD Talon, Clontech) and size exclusion chromatography (Superdex 200, Pharmacia).

Data set [3] addresses B4. Nature of the data set: flow cytometry, tetramer staining of NKL cells. An excerpt: Early studies of NKG2D interactions with its ligands utilized randomly oligomerized recombinant MICA (rMICA) or ULBP family ligands produced as immunoglobulin fusion proteins, all of which bound exclusively to NKG2D expressing lymphocytes (Bauer et al., 1999; Cosman et al., 2001). Testing MICA and ULBP2 tetramers, the inventors confirmed that these high avidity reagents stained the NKL NK cell line and that binding was entirely accounted for by NKG2D (FIG. 1A). However, in the course of screening ˜40 cell lines by flow cytometry, the inventors observed that MICA, but not ULBP2, tetramers stained cell types lacking NKG2D. The highest fluorescence intensities were recorded with U266 myeloma cells and all of 10 epithelial tumor lines tested and correlated with relatively large amounts of cell surface MICA. Only monocytic U937 cells were identified as negative for tetramer binding (FIG. 1A). The MICA tetramers were prepared using glycosylated protein secreted by transfected 293T cells. However, tetramer binding was not reduced after cleavage of cell surface polypeptide-linked carbohydrates but was inhibited in the presence of unglycosylated rMICA (FIG. 1A).

The target of data set [4] is T3, ERp5 (endoplasmic reticulum protein 5) on the cell surface (Homo sapiens (Human), UniProt Q15084 20-440).
T3 construct: Also stands for the native 50 kD ERp5 solubilised from U266 outer cell membranes in the MICA bead purification; also called surface ERp5; disulfide isomerase-related protein P5
T3 sequence: B1 chain
Nature of the data set: flow cytometry of freshly isolated tumor cells. Background: Flow cytometry measures light scatter and fluorescence of single cells or particles in a stream.

As to B1, the “disulfide bond reduction, non-reducing gel electrophoresis” value in data set [1] is “ERp5 did not affect unrelated proteins with relatively accessible intrachain (Siderocalin) or intrachain and interchain (CD94-NKG2A) disulfide bonds”.
On to B2, for which the binding result in data set [2] was “binds”.
Take B3: the binding result in data set [3] was “binds”.
Take B4: the binding result in data set [4] is listed as “binds”.
